Data published in publication PMC4525183, “Snf1/AMP-activated protein kinase activates Arf3p to promote invasive yeast growth via a non-canonical GEF domain” (Nature Communications, 2015).

T1: GST-Snf1-C (a.a. 311–633) (S. cerevisiae, UniProt P06782 311-633)
T1 construct: Snf1p, S. cerevisiae, C-terminal regulatory domain, a.a; 311–633; Vector pGEX4T-1; also called C-terminal regulatory domain of Snf1p; source: E. coli BL21 (DE3), purified (glutathione-Sepharose 4B)
T1 sequence (looked up): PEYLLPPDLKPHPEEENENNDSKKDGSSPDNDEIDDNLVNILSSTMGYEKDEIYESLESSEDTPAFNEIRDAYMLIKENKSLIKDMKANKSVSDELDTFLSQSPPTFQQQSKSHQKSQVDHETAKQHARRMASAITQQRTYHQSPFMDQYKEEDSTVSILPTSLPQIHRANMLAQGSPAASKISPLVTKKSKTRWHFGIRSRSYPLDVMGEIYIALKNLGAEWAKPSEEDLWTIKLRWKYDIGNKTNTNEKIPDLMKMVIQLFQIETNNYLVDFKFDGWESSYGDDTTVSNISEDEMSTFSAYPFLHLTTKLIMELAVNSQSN

B1: GST-Snf1-C1 (a.a. 392–518) (domain or fragment, S. cerevisiae, UniProt P06782 392-518, looked up)
chain: LIKDMKANKSVSDELDTFLSQSPPTFQQQSKSHQKSQVDHETAKQHARRMASAITQQRTYHQSPFMDQYKEEDSTVSILPTSLPQIHRANMLAQGSPAASKISPLVTKKSKTRWHFGIRSRSYPLDV
notes: Snf1p, S. cerevisiae, a.a; Vector pGEX4T-1; source: E. coli BL21 (DE3), purified (glutathione-Sepharose 4B)
B2: His-Arf3^T31N (natural protein, S. cerevisiae, UniProt P40994 1-183, looked up)
chain: MGNSISKVLGKLFGSKEMKILMLGLDKAGKNTILYKLKLNKIKTSTPTVGFNVETVTYKNVKFNMWDVGGQQRLRPLWRHYFPATTALIFVIDSSARNRMEEAKEELYSIIGEKEMENVVLLVWANKQDLKDAMKPQEVSDFLELEKNLKNQPWCVIGSNALSGQGLVEGLSWISNNTNVPKK
notes: Arf3p, S. cerevisiae; T31N; plasmid pET32a-ARF3 (T31N); pET32a usually adds thioredoxin, His and S tags before the insert

How the values were obtained:
His-Arf3^T31N = target: B2; assay: pull-down; GST fusions on glutathione-Sepharose 4B beads, His-tagged protein in solution (His-Arf3 loaded with GDP or GTPγS); 50 mM Tris-HCl pH 7.5, 150 mM NaCl, 1% Triton X-100, 1 mM DTT, 10 mM MgCl2; 1 h, 4 °C; anti-His blot; conditions: both partners purified
[1] = target: T1, GST-Snf1-C (a.a. 311–633); assay: as above; conditions: both partners purified

| Binder | binding result (His-Arf3^T31N) | binding result [1] |
| --- | --- | --- |
| B1 | binds | – |
| B2 | – | binds |
